Assay: yeast display, Sf9 membrane polyspecificity reagent, FACS + sequencing; frameworks hold sequencing errors
Method in brief: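 Galactose induction of a Saccharomyces cerevisiae BJ5465 synthetic nanobody display library ran 36–48 hours. The cells were then stained for 1 hour at 4 °C with 10% biotinylated, detergent-solubilized Sf9 membrane reagent, pulled down on streptavidin microbeads and FACS-sorted into low and high (top ~1%) gates on expression and reagent-binding fluorescence. Labels for polyreactivity follow the gate of origin.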
In the case of “QVQLVESGGGLVQAGGSLRLSCAASGNTFTYYAMGWYRQAPGKERELVAAINIDVASTYYADSVKGRFTISRDNAKNTVYLQMNSLKPEDTAVYYCAAEVGVYPVYWYDYWGQGTQVTVSS”, the “polyreactivity (PSR sort gate)” value is reported as “low polyreactivity”. In the case of “QVQLVESGGGLVQAGGSLRLSCAASGNTFVANDMGWYRQAPGKERELVAVISGSGGDTYYADSVKGRFTISRDNAKNTVYLQMNSLKPEDTAVYYFAADWYGRETDRSDSDYEYWGQGTKVTVSS”, the “polyreactivity (PSR sort gate)” value is reported as “low polyreactivity”. For “QVQLVESGGGLVQAGGSLRLSCAASGNTFVINTMGWYRQAPGKERELVAGISRRGTSTYYEDSVKGRFTISRDNAKNSVYLQMNSLKPEDTEVYYCAVYSEIVRYEYWGQGTQVTVSS”, the “polyreactivity (PSR sort gate)” value was “high polyreactivity”. For “QVQLVESGGGLVQAGGSLRLSCAASGNTFVLYAMGWYRQAPGKERELVAAINNGGSTYADSVKGRFTISRDNAKNTVYLQMNSLKPEDTAVYYCAARYQVGVYWRRYYWGQGTQVTVSS”, the “polyreactivity (PSR sort gate)” value was “high polyreactivity”. With “QVQLVESGGGLVQAGGSLRLSCAASGNTFVPYAMGWYRQAPGKERELVAAISWRGGSTYYADSVKGRFTISRDNAKNTVYLQMNSLKPEDTAVYYCAARTFYRPGLAGGYWGQGTQVTVSS” the “polyreactivity (PSR sort gate)” value was “high polyreactivity”. With “QVQLVESGGGLVQAGGSLRLSCAASGNTFVRNAMGWYRQAPGKERELVASISQSGGTTYYADSVKGRFTISRDNAKNTVYLQMNSLKPEDTAVYYCNAARYRRSPGHTKYNYWGQGTQVTVSS” the “polyreactivity (PSR sort gate)” value was “high polyreactivity”. For “QVQLVESGGGLVQAGGSLRLSCAASGNTFVRNVMGWYRQAPGKERELVAAITWRSVRTYYADSVKGRFTISRDTAKNTVYLQMNSLKPEDTAVYYCAAASASRHGEYDYWGQGTQVTVSS”, the “polyreactivity (PSR sort gate)” value was “low polyreactivity”. For “QVQLVESGGGLVQAGGSLRLSCAASGNTFVSNARGWYSQAPGKEREWVAAIDSGGSTNYADSVKGRFTISRDNAKNTDYLQMNSLKPEDTAVYYCNRTSVYYYYWGQGTQVTVSS”, the “polyreactivity (PSR sort gate)” value was “low polyreactivity”. With “QVQLVESGGGLVQAGGSLRLSCAASGNTFVTYTMGWYRQAPGKERELVADISSGGSTYYADSVKGRFTISRDNAKNTVYLQINSLKPEDTAVYYCAVQQAVFRSYYIYHRYYWGQGTQVTVSS” the “polyreactivity (PSR sort gate)” value was “high polyreactivity”. In the case of “QVQLVESGGGLVQAGGSLRLSCAASGNTFWDNAMGWYRQAPGKERELVAAIRWSTGSTHYADSVKGRFTISRDNAKNTVYLQMNSLKPEDTAVYYCAATDYYYYRDKYYGYDYWGQGTQVTVSS”, the “polyreactivity (PSR sort gate)” value is reported as “low polyreactivity”. In the case of “QVQLVESGGGLVQAGGSLRLSCAASGNTFYGYALGWYRPAPGKERELVASITLSGDSTHYADSVKGRFTISRDNAKNTVYVQMNSLKPEDTAVYYCAGVYTYPLGYYHYTYDYWGQGTQVTVSS”, the “polyreactivity (PSR sort gate)” value is reported as “low polyreactivity”. In the case of “QVQLVESGGGLVQAGGSLRLSCAASGNTFYGYAMGWYRQAPGNERELVASITLSGDSTYYADSVKGRFTISRDNAKNTVYLQMNSLKPEDTAVYYCAGVYTYPLGYYHDTYDYWGQGTQVTVSS”, the “polyreactivity (PSR sort gate)” value is reported as “low polyreactivity”. For “QVQLVESGGGLVQAGGSLRLSCAASGNTFYRYAMGGYRQSPGKERELVAAITWSGSRTYYADSVKGRFTISRDNAKYTVYLQMNRLKPEDTAVYYCAAPFWYVGPAMDYWGQGTQVTVSS”, the “polyreactivity (PSR sort gate)” value was “low polyreactivity”. For “QVQLVESGGGLVQAGGSLRLSCAASGNTFYWYVMGWYRQAPGKERELVARITSSGGSTNYADSVKGRFTISRDNAKNTVYLQMNSLKPEDTAVYYCAADDIYLYGGGTDYYFWGQGTQVTVSS”, the “polyreactivity (PSR sort gate)” value was “low polyreactivity”. For “QVQLVESGGGLVQAGGSLRLSCAASGNTIGSNAMGWYRQAPGKERELVATISKRGGSTYYADSVKGRFTISRDNAKNTVYLQMNSLKPEDTAVYYCATTSTRYWAFSSRPDYRDDYWGQGTQVTVSS”, the “polyreactivity (PSR sort gate)” value was “high polyreactivity”. For “QVQLVESGGGLVQAGGSLRLSCAASGNTIYQYAMGWYRQAPGKERELVAAISSSVDRTYYADSVKGRFTISRDNAKNTVYLQMNSLKPEDTAVYYCAAASGGRWRVGYWGQGTQVTVSS”, the “polyreactivity (PSR sort gate)” value was “high polyreactivity”. In the case of “QVQLVESGGGLVQAGGSLRLSCAASGNTLGYNAMGWYRKAPGKERELVATIRGSGGITYYADSVKGRFTISRDNAKNTVYLQMNSLKPEDTAVDYCAKVYKYRVKGDHWGQGTQVTVSS”, the “polyreactivity (PSR sort gate)” value is reported as “low polyreactivity”. In the case of “QVQLVESGGGLVQAGGSLRLSCAASGNTLRYNVMGWYRQAPGKERELDAAISGGGSTSYADSVKGRFTISRDNAKNTVYLQMNSLKPEDTAVYYCAKRSFVGGRGRDSDYWGQGSQVTVSS”, the “polyreactivity (PSR sort gate)” value is reported as “low polyreactivity”. In the case of “QVQLVESGGGLVQAGGSLRLSCAASGNTLTYNVMGWYRQAPGKERELVAAISGRGGRTYYADSVKGRFTISRDNAKNTVYLQMNCLKPEDTAVYYCAAKSRNGESGGFDYWGQATQVTVSS”, the “polyreactivity (PSR sort gate)” value is reported as “high polyreactivity”. With “QVQLVESGGGLVQAGGSLRLSCAASGNTLVKNAMGWYRQAPGNERELVAAISSSGGRTYYADSVKGRFTISRDNAKNTVYLQMNSLKPEDTAVYYCAARYPSGYYYWGQGTQVTVSS” the “polyreactivity (PSR sort gate)” value was “high polyreactivity”. With “QVQLVESGGGLVQAGGSLRLSCAASGNTTPVNAMGWYRQAPGKERQLVAAITQSGGSTYYADSVKGRFTISRDNAKNTVYLQMNSLKPEDTAVYYCAADYGHYYGLYYWGQGTQVTVSS” the “polyreactivity (PSR sort gate)” value was “low polyreactivity”. With “QVQLVESGGGLVQAGGSLRLSCAASGNTYYGNTKGWYRQAPGKERELVAAITSGGSTYYADSVKGRFTISRDNAKNTVYLQMNSLKPEDTAVYYCNVVFYEYSSVSYDYWGQGTQVTVSS” the “polyreactivity (PSR sort gate)” value was “high polyreactivity”. With “QVQLVESGGGLVQAGGSLRLSCAASGPIFKRNAMGWYRQAPGKERELVAAISGSGGRTYYADSVKGRFTISRDNAKNTVYLQMNSLKPEDTAVYYCNAGGSYYARGMDYWGQGTQVTVSS” the “polyreactivity (PSR sort gate)” value was “high polyreactivity”. In the case of “QVQLVESGGGLVQAGGSLRLSCAASGPIFWGYAMGWYRQAPGKERELVAAITSGGNTNYADSVKGRFTISRDNAKNTVYLQMISLKPEDTAVSYCAKRTRPWRDFDYWGQGTQVTVSS”, the “polyreactivity (PSR sort gate)” value is reported as “low polyreactivity”. In the case of “QVQLVESGGGLVQAGGSLRLSCAASGPIFYRYAMGWYRQAPGKERELVAAISRGGRTYYADSVKGRFTISRDNAKNTVYLQMNRLKPEDTAVYYCATTYSLGSWGYDYWGQGTQVTVSS”, the “polyreactivity (PSR sort gate)” value is reported as “high polyreactivity”. For “QVQLVESGGGLVQAGGSLRLSCAASGPIVAYNAMGWYRQAPGKERELVAAISYSGGSTYYADSVKGRFTISRDNAKNTVYLQMNSLKPEDTAVYYCNAVYRYRTYRYDYWGQGTQVTVSS”, the “polyreactivity (PSR sort gate)” value was “high polyreactivity”. In the case of “QVQLVESGGGLVQAGGSLRLSCAASGPTFDYYAMGWYRQAPGKERELVAAISYSGGNSYYADSVKGRFTISRDNAKNTVYLQMNSLKPEDTAVYYWAANPAARDGRKTGYFCGQGTQVTVSS”, the “polyreactivity (PSR sort gate)” value is reported as “high polyreactivity”. In the case of “QVQLVESGGGLVQAGGSLRLSCAASGPTFGVNAMGWYRQAPGKERELVAVISSTGSTNYSDSVKGRFTISRDNAKYTVYLQMNSLKPEDTAVYYCAVGPNSVGNRSYGFDYWGQGTQVTVSS”, the “polyreactivity (PSR sort gate)” value is reported as “low polyreactivity”. In the case of “QVQLVESGGGLVQAGGSLRLSCAASGPTFQIYAMGSYRQAPGNERELDAAIRWRGGTTYYADSVKGRFTISRDNAKNTVYLQMNSLTPEDTAVYYCAADYYWSPYYVYQFDYWGQGTQVTVSS”, the “polyreactivity (PSR sort gate)” value is reported as “low polyreactivity”. For “QVQLVESGGGLVQAGGSLRLSCAASGPTFWVYAMGWNRQAPGKERELVAAISRSGVSTYYADSVKGRFTISRDNAKNTVYLQMNSLKPEDTAVYYCAAPLIYTPLKYHYWGQGTQVTVSS”, the “polyreactivity (PSR sort gate)” value was “low polyreactivity”. With “QVQLVESGGGLVQAGGSLRLSCAASGPTNAMGWYRQAPGKERELVAAITKSGGSTYYADSVKGRFTISRDNAKNTVYLLMNSLKPEDTAVYYCALILRHTAYYYWGQGTQVTVSS” the “polyreactivity (PSR sort gate)” value was “high polyreactivity”. In the case of “QVQLVESGGGLVQAGGSLRLSCAASGQIFSRYAMGWSRQAPGNERELVAAITWSGGRTYYADSVKGRFTISRDNAKYTVYLQMNSLKAEDTAVYYCAATRYPLPEYYWGQGTQGTVSS”, the “polyreactivity (PSR sort gate)” value is reported as “high polyreactivity”. In the case of “QVQLVESGGGLVQAGGSLRLSCAASGQKFEYNAMVWYRQAPRKERELVAVITYTYYADSVKGRFTISRDNAKNTVYLLMNCLKPEATAVYYCAVLYSEEILRNDNGVRFDYWGQGTQVTVSS”, the “polyreactivity (PSR sort gate)” value is reported as “low polyreactivity”. With “QVQLVESGGGLVQAGGSLRLSCAASGQTIAAYVMGWYRQAPGKERELVARISRSGGSTYYADSVKGRFTISRDNAKNTVYLQMNSLKPEDTAVYYCAAARPYKTSLPGAPYDYWGQGTQVTVSS” the “polyreactivity (PSR sort gate)” value was “low polyreactivity”. In the case of “QVQLVESGGGLVQAGGSLRLSCAASGRIFAAYAMGWYRQAPGKEREFVAAIRLSGGSTYYADSVKGRFTISRDNAKNTVYLQMNSLKPEDTAVYYCAARYPGVARFYYWGQGTQLTVSS”, the “polyreactivity (PSR sort gate)” value is reported as “high polyreactivity”. In the case of “QVQLVESGGGLVQAGGSLRLSCAASGRIFAAYAMGWYRQAPGKERELVAGISRGGRTYYADSVKGRFTISRDNAKNTVYLQMNSLKPEDTAVYYCNKAPSWWDVRVPFDYWGQGTQVTVSS”, the “polyreactivity (PSR sort gate)” value is reported as “low polyreactivity”. For “QVQLVESGGGLVQAGGSLRLSCAASGRIFAAYAMGWYRQAPGKERELVDAISSTGGTTYYADSVKGRFTISRDNAKNTVYLQMNSLKPEDTAVYYCATTVIVTKGSWHYSYDYWGQGTQVTVSS”, the “polyreactivity (PSR sort gate)” value was “low polyreactivity”. In the case of “QVQLVESGGGLVQAGGSLRLSCAASGRIFAENAMGWYRQAPGKERELVAAITDGGGSTYYADSVKGRFTISRDNAKNTVYLQMNSLKPEDTAVYYCNAYRYHLGVDFDYWGQGTQVTVSS”, the “polyreactivity (PSR sort gate)” value is reported as “low polyreactivity”. In the case of “QVQLVESGGGLVQAGGSLRLSCAASGRIFAFNAMGWYRQAPGKERELVAAITGRGGRTYYADSVKGRFTISRDNAKNTVYLQMNSLKPEDTAVYYCAAQRYINYDYWGQGTQVTVSS”, the “polyreactivity (PSR sort gate)” value is reported as “high polyreactivity”. For “QVQLVESGGGLVQAGGSLRLSCAASGRIFAFYAMGWYRQAPGKERQLVAVISKSGGTTYYADSVKGRFTISRDNAKNTVYLQMNSLKPEDTAVYYCNKRVFYRHGYSYNYWGQGTQVTVSS”, the “polyreactivity (PSR sort gate)” value was “high polyreactivity”. With “QVQLVESGGGLVQAGGSLRLSCAASGRIFAFYAMGWYRQAPGKVREFVAAITKSGGSTYYADSVKGRFTISRDNAKNTVYLQMNSLKPEDTAVYYCAADYWYPTTYYLYDYWGQGTQVTVSS” the “polyreactivity (PSR sort gate)” value was “low polyreactivity”.

— the nanobody polyreactivity screen of Harvey et al. (2022)
